Laboratory results taken from PMC11969024 (2025).

B1: peptide HD2 (from tick evasin EVA4) / CXCL14 (biotinylated, synthetic) (parent complex)
chain 1: EEDDYTAYAPLTCYFT
chain 2: SKCKCSRKGPKIRYSDVKKLEMKPKYPHCEEKMVIITTKSVSRYRGQEHCLHPKLQSTKRFIKWYNAWNEKRRVYEE

Variants of: B1

Row | Variant | enrichment
1 | chain 1 A9Y | -5.34 log2 (difference from the parental peptide)
2 | chain 1 A9M | 0.996 log2 (difference from the parental peptide)
3 | chain 1 C13E | -8.19 log2 (difference from the parental peptide)
4 | chain 1 C13V | 2.72 log2 (difference from the parental peptide)
5 | chain 1 C13W | -7.91 log2 (difference from the parental peptide)
6 | chain 1 C13D | -5.83 log2 (difference from the parental peptide)
7 | chain 1 C13G | -8.69 log2 (difference from the parental peptide)
8 | chain 1 C13A | -6.89 log2 (difference from the parental peptide)
9 | chain 1 E2W | 0.435 log2 (difference from the parental peptide)
10 | chain 1 E2D | 0.377 log2 (difference from the parental peptide)
11 | chain 1 E2S | 0.196 log2 (difference from the parental peptide)
12 | chain 1 E2T | -2.03 log2 (difference from the parental peptide)
13 | chain 1 E2L | -1.86 log2 (difference from the parental peptide)
14 | chain 1 T16V | -2.39 log2 (difference from the parental peptide)
15 | chain 1 T16K | 0.732 log2 (difference from the parental peptide)
16 | chain 1 T16Q | -5.09 log2 (difference from the parental peptide)
17 | chain 1 T16E | -5.76 log2 (difference from the parental peptide)
18 | chain 1 T16A | -3.04 log2 (difference from the parental peptide)
19 | chain 1 T16M | 1.39 log2 (difference from the parental peptide)
20 | chain 1 T16N | -3.97 log2 (difference from the parental peptide)
21 | chain 1 T16P | -4.73 log2 (difference from the parental peptide)
22 | chain 1 F15R | -5.53 log2 (difference from the parental peptide)
23 | chain 1 F15I | -3.52 log2 (difference from the parental peptide)
24 | chain 1 F15A | -5.37 log2 (difference from the parental peptide)
25 | chain 1 F15Q | 1.93 log2 (difference from the parental peptide)

Row | Variant | enrichment
26 | chain 1 D4W | -5.85 log2 (difference from the parental peptide)
27 | chain 1 D4S | -1.33 log2 (difference from the parental peptide)
28 | chain 1 D4N | 1.31 log2 (difference from the parental peptide)
29 | chain 1 D4I | 0.635 log2 (difference from the parental peptide)
30 | chain 1 D4Y | -1.42 log2 (difference from the parental peptide)
31 | chain 1 D4E | -4.2 log2 (difference from the parental peptide)
32 | chain 1 D3E | -1.97 log2 (difference from the parental peptide)
33 | chain 1 D3P | -5.77 log2 (difference from the parental peptide)
34 | chain 1 D3T | -5.87 log2 (difference from the parental peptide)
35 | chain 1 P10A | 2.1 log2 (difference from the parental peptide)
36 | chain 1 P10W | 1.96 log2 (difference from the parental peptide)
37 | chain 1 P10V | 0.331 log2 (difference from the parental peptide)
38 | chain 1 P10G | -1.01 log2 (difference from the parental peptide)
39 | chain 1 P10S | -0.979 log2 (difference from the parental peptide)
40 | chain 1 Y5I | 0.188 log2 (difference from the parental peptide)
41 | chain 1 Y5C | -4.43 log2 (difference from the parental peptide)
42 | chain 1 Y5H | -3.59 log2 (difference from the parental peptide)
43 | chain 1 Y14W | -6.55 log2 (difference from the parental peptide)
44 | chain 1 Y14L | -8.75 log2 (difference from the parental peptide)
45 | chain 1 Y14Q | -6.31 log2 (difference from the parental peptide)
46 | chain 1 Y14H | 2.79 log2 (difference from the parental peptide)
47 | chain 1 T6V | -0.538 log2 (difference from the parental peptide)
48 | chain 1 T6W | 5.58 log2 (difference from the parental peptide)
49 | chain 1 T6H | -0.995 log2 (difference from the parental peptide)
50 | chain 1 T6F | 0.389 log2 (difference from the parental peptide)

Row | Variant | enrichment
51 | chain 1 T6G | 4.19 log2 (difference from the parental peptide)
52 | chain 1 T6I | 0.467 log2 (difference from the parental peptide)
53 | chain 1 T6A | 0.332 log2 (difference from the parental peptide)
54 | chain 1 T6C | -9.38 log2 (difference from the parental peptide)
55 | chain 1 T6Q | 0.84 log2 (difference from the parental peptide)
56 | chain 1 T6L | 0.717 log2 (difference from the parental peptide)
57 | chain 1 T6R | 3.99 log2 (difference from the parental peptide)
58 | chain 1 T6D | 3.46 log2 (difference from the parental peptide)
59 | chain 1 L11H | 3.17 log2 (difference from the parental peptide)
60 | chain 1 L11W | 0.85 log2 (difference from the parental peptide)
61 | chain 1 L11Q | -4.52 log2 (difference from the parental peptide)
62 | chain 1 L11D | 0.52 log2 (difference from the parental peptide)
63 | chain 1 L11M | 2.64 log2 (difference from the parental peptide)
64 | chain 1 L11I | 0.571 log2 (difference from the parental peptide)
65 | chain 1 L11S | -6.87 log2 (difference from the parental peptide)
66 | chain 1 L11N | -0.349 log2 (difference from the parental peptide)
67 | chain 1 L11T | -4.92 log2 (difference from the parental peptide)
68 | chain 1 L11F | 1.48 log2 (difference from the parental peptide)
69 | chain 1 E1L | 0.456 log2 (difference from the parental peptide)
70 | chain 1 E1F | 0.23 log2 (difference from the parental peptide)
71 | chain 1 E1I | 3.24 log2 (difference from the parental peptide)
72 | chain 1 E1T | 0.267 log2 (difference from the parental peptide)
73 | chain 1 E1W | -4.16 log2 (difference from the parental peptide)
74 | chain 1 E1D | 2.43 log2 (difference from the parental peptide)
75 | chain 1 E1Y | 0.958 log2 (difference from the parental peptide)
